Results published in patent US20130089548.
Changes are numbered by the printed parent chain.

Tests used:
[1] = target: T1, CDO-IC with Asp1178 to Asn mutation (UniProt Q32MD9)
T1 sequence: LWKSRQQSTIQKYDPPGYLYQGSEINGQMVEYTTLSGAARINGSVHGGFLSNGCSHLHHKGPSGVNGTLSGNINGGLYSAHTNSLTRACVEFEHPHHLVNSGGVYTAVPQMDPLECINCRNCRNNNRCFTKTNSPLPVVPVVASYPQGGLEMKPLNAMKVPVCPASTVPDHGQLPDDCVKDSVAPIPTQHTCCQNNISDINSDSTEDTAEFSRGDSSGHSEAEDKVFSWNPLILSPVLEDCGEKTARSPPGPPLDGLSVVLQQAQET

CDO-IC-D1153N = target: T2, CDO-IC-D1153N (UniProt Q32MD9)
T2 sequence: T1 sequence with D170N, N195D

[2] = target: T3, CDO intracellular domain wild type (CDO-IC wt), in vitro-translated (UniProt Q32MD9)
T3 sequence: T1 sequence with N195D

CDO-IC-D1153N-D1164N = target: T4, CDO-IC-D1153N-D1164N (UniProt Q32MD9)
T4 sequence: T1 sequence with D170N, D181N, N195D

Recombinant purified active caspase-3
in vitro cleavage of in vitro-translated CDO-IC by purified active caspase-3 (autoradiograph, FIG. 5) [1]: the Asp^1178 to Asn mutation had no effect on CDO-IC cleavage
in vitro cleavage of in vitro-translated CDO-IC by purified active caspase-3 (autoradiograph, FIG. 5) (CDO-IC-D1153N): mutation of Asp^1153 to Asn (CDO-IC D1153N) strongly inhibited cleavage by caspase-3
in vitro cleavage of in vitro-translated CDO-IC by purified active caspase-3 (autoradiograph, FIG. 5) [2]: CDO intracellular domain (CDO-IC, amino acids 985 to 1250) was cleaved in vitro when incubated with purified active caspase-3
in vitro cleavage of in vitro-translated CDO-IC by purified active caspase-3 (autoradiograph, FIG. 5) (CDO-IC-D1153N-D1164N): Asp^1153/Asp^1164 to Asn double mutation almost completely suppressed caspase-3 cleavage
